In paper PMC9293779, “Elucidation of binding preferences of YEATS domains to site-specific acetylated nucleosome core particles” (The Journal of Biological Chemistry, 2022):
Values belong to the substance of their own block, whether it stands above or below them.

What was measured:
AF9-YEATS (human) = test: MST; conditions: NCP plate assay: 10 mM Tris-HCl pH 7.5, 150 mM NaCl, 25 C, 1 h, 5 pmol NCP, 25 pmol protein, MST buffer not in material
[1] = molecular target: H4K5/K8-diacetylated NCP (human) (UniProt P04908); test: MST; YEATS domain labelled with a His-tag labeling kit; 10 mM Hepes-NaOH pH 7.4, 150 mM NaCl; room temperature; Monolith NT.115; fitted to the Hill equation, K1/2 = half-saturation concentration; biological triplicate
[2] = molecular target: H4K8/K12-diacetylated NCP (human) (UniProt P04908); test: as above
[3] = molecular target: H4K5/K8/K12/K16-tetra-acetylated NCP (human) (UniProt P04908); test: as above
GAS41-YEATS (human) = test: MST; conditions: NCP plate assay: 10 mM Tris-HCl pH 7.5, 150 mM NaCl, 25 C, 1 h, 5 pmol NCP, 25 pmol protein; MST buffer not in material
YEATS2-YEATS (human) = test: MST; conditions: NCP plate assay: 10 mM Tris-HCl pH 7.5, 150 mM NaCl, 25 C, 1 h, 5 pmol NCP, 25 pmol protein; MST buffer not in material
[4] = molecular target: unmodified nucleosome core particle (NCP) (human) (UniProt P04908); test: MST; YEATS domain labelled with a His-tag labeling kit; 10 mM Hepes-NaOH pH 7.4, 150 mM NaCl; room temperature; Monolith NT.115; fitted to the Hill equation, K1/2 = half-saturation concentration; biological triplicate
AF9-YEATS E57A (human) = test: MST; conditions: NCP plate assay: 10 mM Tris-HCl pH 7.5, 150 mM NaCl, 25 C, 1 h, 5 pmol NCP, 25 pmol protein, MST buffer not in material
[5] = molecular target: H3K9-acetylated NCP (human) (UniProt P04908); test: MST; YEATS domain labelled with a His-tag labeling kit; 10 mM Hepes-NaOH pH 7.4, 150 mM NaCl; room temperature; Monolith NT.115; fitted to the Hill equation, K1/2 = half-saturation concentration; biological triplicate
[6] = molecular target: H4K12-acetylated NCP (human) (UniProt P04908); test: as above
[7] = molecular target: H4K5-acetylated NCP (human) (UniProt P04908); test: as above
[8] = molecular target: H4K8-acetylated NCP (human) (UniProt P04908); test: as above
[9] = histone H4K5ac/K8ac/K12ac/K16ac

Chain of AF9-YEATS domain, polyhistidine-tagged (microscale thermophoresis) (P42568 1-138): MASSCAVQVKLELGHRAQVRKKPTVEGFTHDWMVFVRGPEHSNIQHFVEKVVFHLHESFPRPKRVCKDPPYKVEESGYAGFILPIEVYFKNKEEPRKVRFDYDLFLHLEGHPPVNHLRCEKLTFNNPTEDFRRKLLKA

Substance: H4K12ac NCP
K half (AF9-YEATS (human); histone H4K12ac): 140 nM

fold increase in K1/2 against the WT [1]: 1.8 fold
fold increase in K1/2 against the WT [2]: 1.3 fold
fold increase in K1/2 against the WT [3]: 1.5 fold
Substance: AF9-YEATS E57A mutant (from UniProt P42568 1-138) (domain or fragment)

Substance: nucleosome-free 147-bp dsDNA
K half (AF9-YEATS (human)): 12000 nM
K half (GAS41-YEATS (human)): > 50000 nM
K half (YEATS2-YEATS (human)): 8.2 µM

Substance: H3K9ac NCP
K half (AF9-YEATS (human); histone H3K9ac): 16 nM

Substance: unmodified NCP
K half (AF9-YEATS (human)): 140 nM
K half (GAS41-YEATS (human)): 1400 nM
K half (YEATS2-YEATS (human)): 2.6 µM

Substance: H4K8ac NCP
K half (AF9-YEATS (human); histone H4K8ac): 75 nM

K1/2 (half-saturation concentration) [4]: 1.4 µM
Substance: GAS41-YEATS domain, polyhistidine-tagged (microscale thermophoresis) (from UniProt O95619 15-159) (domain or fragment)

Substance: H4K5ac NCP
K half (AF9-YEATS (human); histone H4K5ac): 120 nM

K1/2 (half-saturation concentration) [4]: 2.6 µM
Substance: YEATS2-YEATS domain, polyhistidine-tagged (microscale thermophoresis) (from UniProt Q9ULM3 200-349) (domain or fragment)

Substance: H4K5ac/K8ac NCP
K half (AF9-YEATS (human); histone H4K5ac/K8ac): 30 nM
binding signal (fold K1/2 increase vs WT) (AF9-YEATS E57A (human); histone H4K5ac/K8ac): 1.8

K1/2 (half-saturation concentration) [5]: 16 nM
K1/2 (half-saturation concentration) [4]: 0.14 µM
K1/2 (half-saturation concentration) [6]: 140 nM
K1/2 (half-saturation concentration) [7]: 120 nM
K1/2 (half-saturation concentration) [1]: 30 nM
K1/2 (half-saturation concentration) [8]: 75 nM
K1/2 (half-saturation concentration) [2]: 41 nM
K1/2 (half-saturation concentration) [3]: 25 nM
Substance: AF9-YEATS domain, polyhistidine-tagged (microscale thermophoresis) (from UniProt P42568 1-138) (domain or fragment)

Substance: H4K8ac/K12ac NCP
K half (AF9-YEATS (human); histone H4K8ac/K12ac): 41 nM
binding signal (fold K1/2 increase vs WT) (AF9-YEATS E57A (human); histone H4K8ac/K12ac): 1.3

Substance: H4K5ac/K8ac/K12ac/K16ac NCP
K half (AF9-YEATS (human); [9]): 25 nM
binding signal (fold K1/2 increase vs WT) (AF9-YEATS E57A (human); [9]): 1.5
